{"source": "paper doi:10.1101/2025.11.17.688911", "about": "(2025)", "binders": {"B1": {"name": "MAP9-MTBD (Human MAP9 (302–647)::GFP::strepII) (domain or fragment)", "chain": "SKESQVTADDLEEEKAKAELIMDDDRTVDPLLSKSQSILISTSATASSKKTIEDRNIKNKKSTNNRASSASARLMTSEFLKKSSSKRRTPSTTTSSHYLGTLKVLDQKPSQKQSIEPDRADNIRAAVYQEWLEKKNVYLHEMHRIKRIESENLRIQNEQKKAAKREEALASFEAWKAMKEKEAKKIAAKKRLEEKNKKKTEEENAARKGEALQAFEKWKEKKMEYLKEKNRKEREYERAKKQKEEETVAEKKKDNLTAVEKWNEKKEAFFKQKEKEKINEKRKEELKRAEKKDKDKQAINEYEKWLENKEKQERIERKQKKRHSFLESEALPPWSPPSRTVFAKVF"}}, "biological_target": "surface-immobilized biotinylated microtubules (pig, UniProt Q2XVP4 1-451; Q767L7 1-444, biotin (site not stated) | biotin (site not stated))", "sequence (Q2XVP4 whole entry, chain 1 of 2)": "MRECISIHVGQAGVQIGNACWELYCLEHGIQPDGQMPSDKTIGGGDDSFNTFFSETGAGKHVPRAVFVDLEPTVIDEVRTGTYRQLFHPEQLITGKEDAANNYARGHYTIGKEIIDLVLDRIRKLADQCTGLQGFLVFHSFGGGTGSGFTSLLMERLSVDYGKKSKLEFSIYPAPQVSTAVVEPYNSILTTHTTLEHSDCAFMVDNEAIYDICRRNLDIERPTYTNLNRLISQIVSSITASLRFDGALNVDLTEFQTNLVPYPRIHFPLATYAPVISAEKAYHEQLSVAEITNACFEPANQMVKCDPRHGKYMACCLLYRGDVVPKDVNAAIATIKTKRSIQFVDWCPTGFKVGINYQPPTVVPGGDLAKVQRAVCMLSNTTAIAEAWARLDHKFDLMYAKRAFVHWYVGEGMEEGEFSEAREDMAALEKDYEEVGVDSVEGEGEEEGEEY", "sequence (Q767L7 other isoform, or with tags, fused parts or gaps, chain 2 of 2)": "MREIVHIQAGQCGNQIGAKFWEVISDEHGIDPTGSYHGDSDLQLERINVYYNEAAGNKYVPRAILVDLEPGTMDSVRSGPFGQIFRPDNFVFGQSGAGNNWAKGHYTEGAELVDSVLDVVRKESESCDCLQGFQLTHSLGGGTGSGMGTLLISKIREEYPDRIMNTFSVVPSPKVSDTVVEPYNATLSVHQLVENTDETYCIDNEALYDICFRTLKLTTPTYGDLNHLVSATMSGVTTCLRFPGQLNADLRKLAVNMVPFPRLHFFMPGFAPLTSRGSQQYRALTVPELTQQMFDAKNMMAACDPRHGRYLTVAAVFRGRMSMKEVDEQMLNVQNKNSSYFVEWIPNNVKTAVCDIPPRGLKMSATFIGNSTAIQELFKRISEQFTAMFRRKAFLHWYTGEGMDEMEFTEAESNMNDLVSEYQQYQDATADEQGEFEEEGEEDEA"}
{"binder": "B1", "values": [{"measurement": "Kd", "result": 43, "unit": "nM"}]}
